# According to the Human Domainome abundance scans (Beltran et al. 2025):
# ± gives the uncertainty stated by the source.
# B1: POU domain, class 2, transcription factor 2, residues 200 to 269; numbered along this chain, P09086 (parent)
# chain: LEELEQFARTFKQRRIKLGFTQGDVGLAMGKLYGNDFSQTTISRFEALNLSFKNMCKLKPLLEKWLNDAE
# Variants of: B1
# Test: abundance fitness (aPCA) (normalised: wild type 0, dead -1); higher = more abundant; growth selection in yeast, the domain comes from the species named
# Conditions: Homo sapiens
row,Variant,abundance fitness
1,LEELEQFARTFKQRRIKLGFTQGDAGLAMGKLYGNDFSQTTISRFEALNLSFKNMCKLKPLLEKWLNDAE [V25A],-0.01 ± 0.04
2,LEELEQFARTFKQRRIKLGFTQGDFGLAMGKLYGNDFSQTTISRFEALNLSFKNMCKLKPLLEKWLNDAE [V25F],-0.548 ± 0.097
3,LEELEQFARTFKQRRIKLGFTQGDHGLAMGKLYGNDFSQTTISRFEALNLSFKNMCKLKPLLEKWLNDAE [V25H],-0.996 ± 0.41
4,LEELEQFARTFKQRRIKLGFTQGDIGLAMGKLYGNDFSQTTISRFEALNLSFKNMCKLKPLLEKWLNDAE [V25I],-0.098 ± 0.1
5,LEELEQFARTFKQRRIKLGFTQGDKGLAMGKLYGNDFSQTTISRFEALNLSFKNMCKLKPLLEKWLNDAE [V25K],-0.894 ± 0.057
6,LEELEQFARTFKQRRIKLGFTQGDGGLAMGKLYGNDFSQTTISRFEALNLSFKNMCKLKPLLEKWLNDAE [V25G],-1.05 ± 0.088
7,LEELEQFARTFKQRRIKLGFTQGDMGLAMGKLYGNDFSQTTISRFEALNLSFKNMCKLKPLLEKWLNDAE [V25M],-0.291 ± 0.055
8,LEELEQFARTFKQRRIKLGFTQGDQGLAMGKLYGNDFSQTTISRFEALNLSFKNMCKLKPLLEKWLNDAE [V25Q],-1.03 ± 0.1
9,LEELEQFARTFKQRRIKLGFTQGDRGLAMGKLYGNDFSQTTISRFEALNLSFKNMCKLKPLLEKWLNDAE [V25R],-0.696 ± 0.06
10,LEELEQFARTFKQRRIKLGFTQGDPGLAMGKLYGNDFSQTTISRFEALNLSFKNMCKLKPLLEKWLNDAE [V25P],-0.915 ± 0.11
11,LEELEQFARTFKQRRIKLGFTQGDCGLAMGKLYGNDFSQTTISRFEALNLSFKNMCKLKPLLEKWLNDAE [V25C],-0.229 ± 0.091
12,LEELEQFARTFKQRRIKLGFTQGDEGLAMGKLYGNDFSQTTISRFEALNLSFKNMCKLKPLLEKWLNDAE [V25E],-0.926 ± 0.088
13,LEELEQFARTFKQRRIKLGFTQGDSGLAMGKLYGNDFSQTTISRFEALNLSFKNMCKLKPLLEKWLNDAE [V25S],-0.453 ± 0.046
14,LEELEQFARTFKQRRIKLGFMQGDVGLAMGKLYGNDFSQTTISRFEALNLSFKNMCKLKPLLEKWLNDAE [T21M],-0.26 ± 0.058
15,LEELEQFARTFKQRRIKLGFQQGDVGLAMGKLYGNDFSQTTISRFEALNLSFKNMCKLKPLLEKWLNDAE [T21Q],-0.205 ± 0.058
16,LEELEQFARTFKQRRIKLGFWQGDVGLAMGKLYGNDFSQTTISRFEALNLSFKNMCKLKPLLEKWLNDAE [T21W],-0.633 ± 0.062
17,LEELEQFARTFKQRRIKLGFVQGDVGLAMGKLYGNDFSQTTISRFEALNLSFKNMCKLKPLLEKWLNDAE [T21V],-0.573 ± 0.052
18,LEELEQFARTFKQRRIKLGFSQGDVGLAMGKLYGNDFSQTTISRFEALNLSFKNMCKLKPLLEKWLNDAE [T21S],-0.044 ± 0.042
19,LEELEQFARTFKQRRIKLGFIQGDVGLAMGKLYGNDFSQTTISRFEALNLSFKNMCKLKPLLEKWLNDAE [T21I],-0.746 ± 0.14

row,Variant,abundance fitness
1,LEELEQFARTFKQRRIKLGFLQGDVGLAMGKLYGNDFSQTTISRFEALNLSFKNMCKLKPLLEKWLNDAE [T21L],-0.323 ± 0.041
2,LEELEQFARTFKQRRIKLGFHQGDVGLAMGKLYGNDFSQTTISRFEALNLSFKNMCKLKPLLEKWLNDAE [T21H],-0.286 ± 0.12
3,LEELEQFARTFKQRRIKLGFRQGDVGLAMGKLYGNDFSQTTISRFEALNLSFKNMCKLKPLLEKWLNDAE [T21R],-0.14 ± 0.03
4,LEELEQFARTFKQRRIKLGFKQGDVGLAMGKLYGNDFSQTTISRFEALNLSFKNMCKLKPLLEKWLNDAE [T21K],-0.173 ± 0.06
5,LEELEQFARTFKQRRIKLGFYQGDVGLAMGKLYGNDFSQTTISRFEALNLSFKNMCKLKPLLEKWLNDAE [T21Y],-0.77 ± 0.2
6,LEELEQFARTFKQRRIKLGFTQLDVGLAMGKLYGNDFSQTTISRFEALNLSFKNMCKLKPLLEKWLNDAE [G23L],-0.021 ± 0.035
7,LEELEQFARTFKQRRIKLGFTQPDVGLAMGKLYGNDFSQTTISRFEALNLSFKNMCKLKPLLEKWLNDAE [G23P],-0.136 ± 0.061
8,LEELEQFARTFKQRRIKLGFTQMDVGLAMGKLYGNDFSQTTISRFEALNLSFKNMCKLKPLLEKWLNDAE [G23M],-0.01 ± 0.062
9,LEELEQFARTFKQRRIKLGFTQTDVGLAMGKLYGNDFSQTTISRFEALNLSFKNMCKLKPLLEKWLNDAE [G23T],-0.102 ± 0.049
10,LEELEQFARTFKQRRIKLGFTQADVGLAMGKLYGNDFSQTTISRFEALNLSFKNMCKLKPLLEKWLNDAE [G23A],0.04 ± 0.034
11,LEELEQFARTFKQRRIKLGFTQWDVGLAMGKLYGNDFSQTTISRFEALNLSFKNMCKLKPLLEKWLNDAE [G23W],-0.076 ± 0.043
12,LEELEQFARTFKQRRIKLGFTQFDVGLAMGKLYGNDFSQTTISRFEALNLSFKNMCKLKPLLEKWLNDAE [G23F],-0.01 ± 0.14
13,LEELEQFARTFKQRRIKLGFTQVDVGLAMGKLYGNDFSQTTISRFEALNLSFKNMCKLKPLLEKWLNDAE [G23V],-0.029 ± 0.036
14,LEELEQFARTFKQRRIKLGFTQNDVGLAMGKLYGNDFSQTTISRFEALNLSFKNMCKLKPLLEKWLNDAE [G23N],-0.089 ± 0.096
15,LEELEQFARTFKQRRIKLGFTQIDVGLAMGKLYGNDFSQTTISRFEALNLSFKNMCKLKPLLEKWLNDAE [G23I],-0.004 ± 0.22
16,LEELEQFARTFKQRRIKLGFTQQDVGLAMGKLYGNDFSQTTISRFEALNLSFKNMCKLKPLLEKWLNDAE [G23Q],-0.07 ± 0.068
17,LEELEQFARTFKQRRIKLGFTQHDVGLAMGKLYGNDFSQTTISRFEALNLSFKNMCKLKPLLEKWLNDAE [G23H],-0.056 ± 0.29
18,LEELEQFARTFKQRRIKLGFTQYDVGLAMGKLYGNDFSQTTISRFEALNLSFKNMCKLKPLLEKWLNDAE [G23Y],-0.218 ± 0.096
19,LEELEQFARTFKQRRIKLGFTQDDVGLAMGKLYGNDFSQTTISRFEALNLSFKNMCKLKPLLEKWLNDAE [G23D],-0.055 ± 0.079
